In US20220242950A1 (CANTARGIA, published 2022):
Positions count from the first letter of the chain named.

B1: h48D2 VH5:VL4 (antibody, human IgG1, kappa, L234A L235A, V domains shown)
VH: QEQLEESGGGLVKPGGTLSLTCTVSGPSLSHFDITWIRQAPGSGLEWIGTISPGVSTYYASWAKSRVTISVDTSLNTVSLKLSSVTAADTATYFCARGGVGSSWKAFDLWGPGTLVTISS
VL: ELVMTQSPSSVSASVGDRVTITCQASESISTALAWYQQKPGKAPKLLIYKASTLPSGVPSRFSGSGSGTDFTLTINSLQPEDFATYYCQQGFSSGNVHNAFGGGTKVEIKR
notes: Humanized; also called VL4:VH5; humanized 48D2 variant VH5:VL4
B2: h48D2 VH5.AP:VL4 (antibody, human IgG1, kappa, L234A L235A, V domains shown)
VH: B1 VH with A40P
VL: B1 VL
notes: Humanized and de-immunized; also called VL4:VH5.AP
B3: h48D2 VH5.SK:VL4 (antibody, human IgG1, kappa, L234A L235A, V domains shown)
VH: B1 VH with S43K
VL: B1 VL
notes: Humanized and de-immunized; also called VL4:VH5.SK
B4: h48D2 VH5:VL5.GL (antibody, human IgG1, kappa, L234A L235A)
heavy: not shown
light: DIQMTQSPSTLSASVGDRVTITCQASESISTALAWYQQKPGQPPKLLIYKASTLPSGVPSRFSGSGSGTEFTLTISDLESDDAATYYCQQGFSSGNVHNAFGGGTEVVVKRTVAAPSVFIFPPSDEQLKSGTASVVCLLNNFYPREAKVQWKVDNALQSGNSQESVTEQDSKDSTYSLSSTLTLSKADYEKHKVYACEVTHQGLSSPVTKSFNRGEC
notes: Humanized and de-immunized; also called VL5.GL:VH5
B5: h48D2 VH5.AP:VL5 (antibody, human IgG1, kappa, L234A L235A)
heavy: not shown
light: B4 light with D1A, I2P, Q3V, M4L, S9A, S12E
notes: Humanized and de-immunized; also called VL5:VH5.AP
B6: h48D2 VH5.GL:VL5 (antibody, human IgG1, kappa, L234A L235A)
heavy: not shown
light: B4 light with D1A, I2P, Q3V, M4L, S9A, S12E
notes: Humanized and de-immunized; also called VL5:VH5.GL
B7: h48D2 VH5.SK:VL5.GL (antibody, human IgG1, kappa, L234A L235A)
heavy: not shown
light: B4 light
notes: Humanized and de-immunized; also called VL5.GL:VH5.SK
B8: h48D2 VH5.AP:VL5.GL (antibody, human IgG1, kappa, L234A L235A)
heavy: not shown
light: B4 light
notes: Humanized and de-immunized; also called VL5.GL:VH5.AP
B9: h48D2 VH5.SK:VL5 (antibody, human IgG1, kappa, L234A L235A)
heavy: not shown
light: B4 light with D1A, I2P, Q3V, M4L, S9A, S12E
notes: Humanized and de-immunized; also called VL5:VH5.SK

What follows are binders tested against T1, human IL1RAP on the cell surface (human, UniProt Q9NPH3 21-570) (assay: cell-based or functional assay).
T1 sequence (looked up): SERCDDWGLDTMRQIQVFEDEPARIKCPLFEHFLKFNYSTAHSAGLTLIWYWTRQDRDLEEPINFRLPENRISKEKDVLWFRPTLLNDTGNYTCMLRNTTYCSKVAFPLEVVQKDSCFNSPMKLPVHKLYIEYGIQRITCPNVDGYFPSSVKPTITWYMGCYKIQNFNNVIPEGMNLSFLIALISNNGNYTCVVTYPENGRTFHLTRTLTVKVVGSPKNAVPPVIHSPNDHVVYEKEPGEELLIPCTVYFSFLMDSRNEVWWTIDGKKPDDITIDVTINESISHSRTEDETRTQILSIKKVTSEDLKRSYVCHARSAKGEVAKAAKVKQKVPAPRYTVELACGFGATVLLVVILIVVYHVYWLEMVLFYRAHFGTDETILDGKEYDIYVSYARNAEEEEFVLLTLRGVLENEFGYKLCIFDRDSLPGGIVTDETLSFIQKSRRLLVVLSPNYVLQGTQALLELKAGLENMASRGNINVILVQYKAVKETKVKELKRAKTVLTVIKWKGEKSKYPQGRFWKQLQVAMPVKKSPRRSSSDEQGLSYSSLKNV

Binder	IC50 of IL-1α signaling (HEK-Blue assay)	IC50 of IL-33 signaling (HEK-Blue assay)	IC50 of IL-36α signaling (HEK-Blue assay)	IC50 of IL-36β signaling (HEK-Blue assay)	IC50 of IL-36γ signaling (HEK-Blue assay)
B1	6.47 nM	2 nM	~0.0025 nM	~0.342 nM	2.83 nM

What follows are binders tested against T2, recombinant mf IL1RAP aa21-367 (cynomolgus monkey (Macaca fascicularis), UniProt A0A2K5X5J5 21-367) (assay: binding ELISA, coated recombinant mf IL1RAP aa21-367).
T2 construct: also called cynomolgus monkey IL1RAP; cyno IL1RAP
T2 sequence: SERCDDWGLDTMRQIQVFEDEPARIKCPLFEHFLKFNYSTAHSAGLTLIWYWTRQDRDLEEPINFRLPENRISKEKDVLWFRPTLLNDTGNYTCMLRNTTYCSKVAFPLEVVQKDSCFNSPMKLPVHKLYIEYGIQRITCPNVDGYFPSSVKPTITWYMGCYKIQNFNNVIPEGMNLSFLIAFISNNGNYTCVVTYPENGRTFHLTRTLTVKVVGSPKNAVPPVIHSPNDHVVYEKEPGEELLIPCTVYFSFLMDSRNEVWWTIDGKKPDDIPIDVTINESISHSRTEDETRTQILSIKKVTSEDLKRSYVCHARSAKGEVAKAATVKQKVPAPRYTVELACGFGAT

Binder	IC50
B1	0.028 µg/mL

Each binder was assayed against T3, recombinant hIL1RAP Domain1+2+3 (aa21-367) (human, UniProt Q9NPH3 21-367) (assay: BLI (BLItz), antibody on Protein A biosensor, hIL1RAP (21-367) in solution).
T3 construct: Numbering on Uniprot Q9NPH3
T3 sequence (looked up): T2 sequence with F183L, P273T, T326K
Procedure: (§1) Affinity measurements were done on BLItz™ Label-Free Protein Analysis System from ForteBio, using the Basic Kinetics module in the BLItz Pro 1.3.1.3 software from Molecular Devices. Protein A biosensors were hydrated in blocking buffer (PBS, 0.5% BSA, 0.05% Tween 20, pH 7.4) for minimum 10 min at room temperature before coating. Protein A biosensors were coated with antibodies by dipping the biosensors in 200 μl of antibody solution (10 μg/ml in blocking buffer) for 30 min at room temperature. The sensors were then incubated in 200 μl blocking buffer for at least 10 min before use. […] The baseline was made in blocking buffer with a duration time of 30 sec. Association was made for 120 sec in hIL1RAP followed by 120 sec dissociation in blocking buffer.
Affinity measurement results are shown in Table 4 for chimeric 48D2, as well as for humanized 48D2 variant VH5:VL4 (see Example 11) and for humanized and de-immunized 48D2 variant VH5.GL:VL4 (see Example 13). kₐ is the association rate constant, for characterization of the antibody binding to the target, kd is the dissociation rate constant, for characterization of the antibody dissociation from the target, and KD is the equilibrium dissociation constant between the antibody and its antigen, the ratio of kd/kₐ. […] The lower the KD value (lower concentration), the higher the affinity.

Binder	Kd	koff	kon
B1	2.74 nM	0.000172 s⁻¹	60200 M⁻¹ s⁻¹

Target: T1, human IL1RAP on the cell surface
Assay: cell-based or functional assay
Remark: another data set of the same source

Binder	IC50 of IL-1α signaling (HEK-Blue assay)	IC50 of IL-1β signaling (HEK-Blue assay)	IC50 of IL-33 signaling (HEK-Blue assay)	IC50 of IL-36α signaling (HEK-Blue assay)	IC50 of IL-36β signaling (HEK-Blue assay)	IC50 of IL-36γ signaling (HEK-Blue assay)
B2	0.209 nM	0.122 nM	1.48 nM	0.132 nM	0.146 nM	0.182 nM
B3	0.213 nM	0.099 nM	5.44 nM	0.143 nM	0.108 nM	0.17 nM
B4	0.236 nM	0.105 nM	7.83 nM	0.158 nM	0.165 nM	0.217 nM
B5	0.178 nM	0.098 nM	1.68 nM	0.149 nM	0.134 nM	0.191 nM
B6	0.214 nM	0.0999 nM	2.46 nM	0.128 nM	0.135 nM	0.129 nM
B7	0.321 nM	0.117 nM	3.11 nM	0.204 nM	0.16 nM	0.245 nM
B8	0.204 nM	0.107 nM	2.97 nM	0.178 nM	0.162 nM	0.19 nM
B9	0.172 nM	0.061 nM	2.87 nM	0.136 nM	0.125 nM	0.157 nM

These binders were tested against T3, recombinant hIL1RAP Domain1+2+3 … (assay: bio-layer interferometry, human IL1RAP).
Procedure: as §1
KD values for affinity towards human IL1RAP are shown in Table 17 for the de-immunized h48D2 variants. Affinity was measured using bio-layer interferometry. […] See also Table 4 for a direct comparison of 48D2, humanized 48D2, and de-immunized h48D2.

Binder	Kd
B2	1.7 nM
B3	2 nM
B4	0.752 nM
B5	1.96 nM
B6	1.87 nM
B7	2.28 nM
B8	1.5 nM
B9	2.8 nM

These binders were tested against T3, recombinant hIL1RAP Domain1+2+3 … (assay: binding ELISA, coated recombinant hIL1RAP aa21-367).

Binder	IC50
B1	0.0258 µg/mL

Target: T3, recombinant hIL1RAP Domain1+2+3 …
Assay: bio-layer interferometry, human IL1RAP
Remark: another data set of the same source
Procedure: as §1
The antibodies were characterized for A) binding (ELISA analysis, human and cynomolgus monkey IL1RAP), B) inhibition of cytokine signaling (HEK-Blue™ assay), C) affinity (Bio-layer interferometry), D) size heterogeneity (SE-HPLC) and E) yield (concentration, A280). […] SE-HPLC was performed using standard procedures and PBS as running buffer. Affinity and cytokine inhibition were measured as previously described in Example 10. All 25 humanized clones were analyzed for blocking activity on IL-1α, IL-1β and IL-33 signaling while only the clones that had retained the inhibitory activity similar to chimeric 48D2 were analyzed for IL-36 inhibition.
KD values for affinity towards human IL1RAP are shown in Table 11 for the humanized 48D2 variants. Affinity was measured using bio-layer interferometry. […] See also Table 4 for a direct comparison of chimeric 48D2, humanized 48D2 variant VH5:VL4, and a humanized and de-immunized 48D2 variant VH5.GL:VL4.

Binder	Kd
B1	1.67 nM
